In experiment [1] the target is T1, human serum albumin (human, UniProt P02768 25-609).
T1 construct: Bought reagent; also called HSA
Description: SPR, Biacore 3000; construct captured by anti-Fc F(ab')2, HSA as analyte, 1:1 model. The method, then:
(§1) The (A26Fab-645Fv)₂-Fc samples were captured to the sensor chip surface using either a human Fe-specific goat F(ab′)₂ (Jackson ImmunoResearch, 109-006-098) or an in-house generated anti-human CH1 monoclonal antibody. Covalent immobilisation of the capture antibody was achieved by standard amine coupling chemistry.
(§2) Kinetic binding analysis by SPR was conducted to assess the interactions of human serum albumin (HSA) to the (A26Fab-645Fv)₂-Fc fusion, when captured using either anti-Fc or anti CH1 antibody.

In experiment [2] the target is T1, human serum albumin. Description: SPR, Biacore 3000; construct captured by anti-CH1 antibody, HSA as analyte, 1:1 model. The protocol:
as §1, §2
(In general: SPR reads the build-up and loss of mass on a sensor chip optically.)

Experiment [3] has as its target T1, human serum albumin. Kind of experiment: SPR (BIAcore), HSA as analyte.

B1: (A26Fab-645Fv)2-Fc (bispecific antibody)
heavy: not shown
light: DIQMTQSPSSLSASVGDRVTITCRATQSIYNALAWYQQKPGKAPKLLIYNANTLHTGVPSRFSASGSGTDSTLTISSLQPEDFATYYCQQYYDYPLTFGGGTKVEIKRTVAAPSVFIFPPSDEQLKSGTASVVCLLNNFYPREAKVQWKVDNALQSGNSQESVTEQDSKDSTYSLSSTLTLSKADYEKHKVYACEVTHQGLSSPVTKSFNRGECSGGGGSGGGGSDIVMTQSPSSVSASVGDRVTITCQSSPSVWSNFLSWYQQKPGKAPKLLIYEASKLTSGVPSRFKGSGSGTDFTLTISSLQPEDFATYYCGGGYSSISDTTFGGGTKVEIKRMHEQKLISEEDL
notes: Tested as HEK293 supernatant; also called (FabFv)2Fc; (A26-645Fv)2-Fc
As a reminder, the Kd is the constant that tells how readily two partners part at equilibrium. High values mean weaker binding, low ones tighter binding. In general, koff refers to the rate constant with which the complex falls apart. Read a low koff as a long-lived complex. By kon is commonly meant the rate constant with which the complex forms. In experiment [1], B1 showed a Kd of 1.88 nM, an off-rate constant (koff) of 7.14e-05 s⁻¹ and a kon of 38000 M⁻¹ s⁻¹. In experiment [2], this molecule yielded a Kd of 0.97 nM, a koff of 6e-05 s⁻¹ and a kon of 62000 M⁻¹ s⁻¹. In experiment [3], binding was put at a Kd of 0.97 nM, the Stoichiometry came to 0.55, the koff was 6e-05 s⁻¹ and the kon amounted to 62100 M⁻¹ s⁻¹.

Source of the values: patent publication US20160333105A1 (UCB, published 2016).
